The values that follow come from the supplement of paper PMC9170038.

The test system of this data set is MS2 coat protein. As to the kind of experiment: apparent KD of MS2 coat protein; designed switch direction (-1 OFF switch, 1 ON switch): -1; higher = weaker reporter binding. The essentials: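 RNA switches sharing common flanks were transcribed by stalled E. coli RNA polymerase on Illumina chips. A doubling series of SNAP-549-labelled MS2 coat protein, from 0.7 or 1.5 nM to 3 µM, was applied in Tris-HCl pH 7.5 buffer with KCl, MgCl2, BSA, DTT, tRNA and Tween-20. Each step lasted 0.8–1.5 h at the bottom of the series and 10–20 min at the top. Normalised cluster fluorescence was curve-fitted, giving apparent KD as the per-design median over clusters.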

Setting [1] is: Eterna round: R95, input ligand: microRNA oligo, concentration not stated.
Where [2] appears, read: Eterna round: R95, input ligand: FMN 200 uM.
[3] abbreviates: Eterna round: R95, input ligand: none.
Where [4] appears, read: input ligand: microRNA oligo, concentration not stated.

Take “CCACUGUCAGGAUAUCGUGCAUACAACGAAAGUUCUAUGUGCGAGAAGGGACAUGAGGAUCACCCAUGUAAACG [Omei Ex4 A28] (Eterna round: R97, puzzle: Exclusion 4)”: the “apparent KD of MS2 coat protein” value was 582 nM (input ligand: FMN 200 uM) and 138 nM (input ligand: none).
On to “GAAGAGACAGGAUAUACAUGAGGAUCACCCAUGUGAGUAUGUUGGAGGCGGAGGAGGUGUAGAAGGGUCAAAGA [JR_Exclu3_Sub019] (puzzle: Exclusion 3)”, for which the “apparent KD of MS2 coat protein” value under setting [1] is 20.2 nM.
In the case of “AAUUAGCAAGCGAGAUCUCACAUGAGGAUCACCCAUGUGCUCGUCUUAUAAGGUACUGUGACGAAAGUCACGGUACC [Mat - Sensor, turn-off var - Eli Mod - D40] (Eterna round: R97, puzzle: Sensor, turn-off variant 1)”, the “apparent KD of MS2 coat protein” value is, setting by setting: (input ligand: FMN 200 uM) 14.8 nM; (input ligand: none) 15.8 nM.
With “AGUAGUUGUUUCCGUUCUUACAUGAGGAUCACCCAUGUUUCUUGUCGUGCUCGCGUUGCUCGUCAGACUUCCUGUUG [salish99_TOv1_r3_063] (puzzle: Sensor v3, turn-off variant 1)”, the “apparent KD of MS2 coat protein” value turned out to be 87.2 nM under setting [2], 102 nM under setting [1] and 123 nM under setting [3].
Take “GCGGUACAUGAGGAUCACCCAUGUUAGGAUAUUCUACGUCUCUAAUCUGAAACGCAAGGAAGAAGGAGCGUGGG [Eternabot (Original) Solution 21] (Eterna round: R97, puzzle: Exclusion 1)”: the “apparent KD of MS2 coat protein” value worked out at 83.7 nM (input ligand: FMN 200 uM) and 28.2 nM (input ligand: none).
For the sequence “CUUCGUAUAGAGGAUAUAGGUUACUGCGGUAUCCUAGAAGGCUGUACAUGAGGAUCACCCAUGUACUUCAGAUC [Exclusion 6 - B - 13:c] (puzzle: Exclusion 6)”, the “apparent KD of MS2 coat protein” value under setting [1] came out at 12.6 nM.
With “GACCGGACGUGGUCUGGUAACAUGAGGAUCACCCAUGUUGGUCUAAGAACAUGCCUUUUGCACGCUCGUCUUAUAUU [JR_SV3TOV1_Sub062] (puzzle: Sensor v3, turn-off variant 1)”, the “apparent KD of MS2 coat protein” value runs as follows: under setting [2], 66.2 nM; under setting [1], 29.6 nM; under setting [3], 80.5 nM.
For the sequence “GUGUGCUGAGGAUAUACAUAGGAAGAGAAGAGAAGAGAAGGACAUGAGGAUCACCCAUGUAGAAGGCAGAGUGU [Excluse me!! 12 - Jieux - Exclusion 2] (puzzle: Exclusion 2)”, under setting [1], the “apparent KD of MS2 coat protein” value was determined as 24.5 nM.
As for “CUUAGACAUGAGGAUCACCCAUGUGAGGAUAUGAAAUUAAUUAAUUAUGAAGUAUGAAUCAGAAGGCACAUAUG [Mat - Mod of Hyphema D35] (puzzle: Exclusion 1)”, the “apparent KD of MS2 coat protein” value by setting is: under setting [2], 71.7 nM; under setting [1], 78.6 nM; under setting [3], 118 nM.
As to “AACAAACAUGAGGAUCACCCAUGUCAGGAUAUGGCGGCUAGUGUGCCACCGUACACUACCAGAAGGGACUGGGU [Diedtiis] (puzzle: Exclusion 1)”, under setting [1], the “apparent KD of MS2 coat protein” value is 111 nM.
Consider “GUAUAUAGUGUGAGGAUAUGCUGGUCCUUGGAUCAGCAGAAGGCACAUGAGGAUCACCCAUGUAGUUUAUUAUG [Mat - Exclusion 4 - JL Mod - D8] (puzzle: Brourd's mod of Exclusion 4)”, for which, under setting [1], the “apparent KD of MS2 coat protein” value stood at 20 nM.
As for “UUGUUUGUAGUGAGGAUAUCGUUGAGGAAGAGGAUCGAGAAGGCACAUGAGGAUCACCCAUGUUAGAUGUGGUU [JR_BMOE4_Sub082] (puzzle: Brourd's mod of Exclusion 4)”, the “apparent KD of MS2 coat protein” value under setting [1] was 99.1 nM.
As for “GAUUAUGCGAGCUUUAGGGACAUGAGGAUCACCCAUGUUCGUCUUAUUGGUCUAGGUACACUAACAUACCUAAAUCU [JMF 19] (puzzle: Sensor v3, turn-off variant 1)”, the “apparent KD of MS2 coat protein” value amounted to 20.4 nM under setting [2], 38.9 nM under setting [1] and 21.3 nM under setting [3].
For “CGUGUCUGAUAGGAUAUGACUGUUCAUAGAUGGUUAGAAGGAUCGACAUGAGGAUCACCCAUGUAGGGCUAGCG [Eternabot (L1) Solution 65] (Eterna round: R97, puzzle: Exclusion 6)”, the “apparent KD of MS2 coat protein” value reads like this: (input ligand: FMN 200 uM) 104 nM; (input ligand: none) 219 nM.
“AAGAACGUAGGAUAUACAUGAGGAUCACCCAUGUGAGGAAGGAGUAGGAAGCGUGGAAGUAGAAGGACGGAGAG [JR_Exclu3_Sub075] (puzzle: Exclusion 3)”: the “apparent KD of MS2 coat protein” value by setting is: under setting [2], 27.9 nM; under setting [1], 39.4 nM; under setting [3], 29.3 nM.
With “CAAGUGCCGGAAGGAUAUCAGCGAUGUCACGCUUGAGAAGGUCUGUGCACAUGAGGAUCACCCAUGUCCGCCAGACUCCUUAAC [Eternabot solution 21] (Eterna round: R96, puzzle: Exclusion NG 1)”, the “apparent KD of MS2 coat protein” value under setting [4] turned out to be 7.68 nM.
Regarding “UGAUUGUUUACCAGGUUAUACAUGAGGAUCACCCAUGUAGAUCCUACGUGCGCGUUGUACCGCUCGUCUUAUUCCCA [Sensor-V1 #78] (Eterna round: R97, puzzle: Sensor, turn-off variant 1)”, the “apparent KD of MS2 coat protein” value is 18.3 nM (input ligand: FMN 200 uM) and 18.9 nM (input ligand: none).
The corresponding values for “AAUUAGCAAGCGAGAUCCCACAUGAGGAUCACCCAUGUGCUCGUCUUAUAUAAGGUACUGUACAAAAGUACGGUACC [Mat - Sensor, turn-off var - Eli Mod - D32] (Eterna round: R97, puzzle: Sensor, turn-off variant 1)” are 14.5 nM and 14.1 nM.
On to “UUUUUAUAUGAAGGAUAUACUUAACAUGAGGAUCACCCAUGUGGUGUUGUGAGUGAGUGAGUUUAGUAGAAGGUCAAGUAUUUC [JMF's solution 43] (Eterna round: R96, puzzle: Exclusion NG 2)”, for which the “apparent KD of MS2 coat protein” value was 752 nM (input ligand: FMN 200 uM), 329 nM under setting [4] and 731 nM (input ligand: none).
Turning to “AAACUCCCGGCAACCGGGAACAUGAGGAUCACCCAUGUGGCGUGACUCAUACGGGCUUUUUGUUCGUUUUAUUCACG [Xeisororer] (puzzle: Sensor v3, turn-off variant 1)”, the “apparent KD of MS2 coat protein” value is 53.4 nM under setting [2], 27.7 nM under setting [1] and 63.6 nM under setting [3].
Regarding “GUGUACAGAGGAUAUACUUAUGGAGUUACGAAAGUAACUUCACAUGAGGAUCACCCAUGUAGAAGGCUGUACAC [Dot plot directed v10] (puzzle: Exclusion 2)”, under setting [1], the “apparent KD of MS2 coat protein” value was 25.9 nM.
The same measure, in the same setting: the same measure for “GUGUACAGAGGAUAUGCACGAGGAGUUACGAAAGUAACUUCACAUGAGGAUCACCCAUGUAGAAGGCUGUACAC [Dot plot directed v5] (puzzle: Exclusion 2)”: 13.9 nM.
Consider “ACAUGAGGAUCACCCAUGUACAGGGUUUAGUUUCAUCGUUUGAAGGAUAUACUCCGUUAGUUGUCGUAGAAGGUCACAGUUUGG [JR_ExcNG3_Sub007] (Eterna round: R96, puzzle: Exclusion NG 3)”, for which the “apparent KD of MS2 coat protein” value is, setting by setting: (input ligand: FMN 200 uM) 179 nM; under setting [4], 128 nM; (input ligand: none) 178 nM.
With “AAGUAUAGAGGAUAUAGUGAGUACUACAUGAGGAUCACCCAUGUUCUUCAAAGCGUACUUCUAGAAGGCUGUUAAA [EX-5 Malc#17] (puzzle: Exclusion 5)”, the “apparent KD of MS2 coat protein” value under setting [2] was 452 nM, the “apparent KD of MS2 coat protein” value under setting [1] was found to be 263 nM and the “apparent KD of MS2 coat protein” value under setting [3] turned out to be 214 nM.
